{"source": "patent US6667052B2", "about": "“Transdermal delivery system” (priority 1997, dated 2003)", "key": {"[1]": {"system": "non-fasted rats (Sprague-Dawley strain)", "test": "In-vivo evaluation of dermally-applied insulin after diethyl maleate (DEM) pretreatment: plasma glucose", "set-up": "species or system rat", "conditions": "FIG. 3", "experimental": "Two non-fasted locally-grown rats (Sprague-Dawley strain) were anesthetized (15 mg/ml pentobarbital sodium, 0.2-0.3 ml i.p.). The rats were placed on their back, the abdominal hair was trimmed off, and then the skin was washed gently with distilled water. The animals were maintained with 0.1 ml pentobarbital 15 mg/ml solution to keep them continuously asleep during the experiment. Diethyl maleate, a glutathion depleting agent, was injected intraperitoneally (0.5 ml, 20% v/v ethanolic solution) to one rat only.\nBlood sampling and glucose measurement were performed as described in example 5."}, "[2]": {"system": "rats (Sprague-Dawley strain)", "test": "In-vivo evaluation of dermally-applied insulin with oxidant pretreatment: plasma glucose monitoring", "set-up": "species or system rat"}, "[3]": {"system": "GSH", "conditions": "iodine 0.5% to 10% applied; preliminary experiments, FIG. 10"}, "[4]": {"conditions": "for applied insulin remained in the cylinder: after 3 hours", "from_the_text": "Careful attention was paid that the liquid has covered the entire skin area in the cylinder and that no leaking has occurred."}, "[5]": {"conditions": "iodine-pretreated skin exposed for 2 hours to insulin; FIG. 9B", "experimental": "The method was performed according to Wroblewski et al (see above) using a reverse phase column (Vydac C18, 250×4.6 mm, 5? m), and a diodearray detector."}, "[6]": {"conditions": "control rats not pretreated with iodine, dermal insulin"}}, "note": "“Also recorded” adds a separate entry of the source. Structures can show the parent of a compound that is named as a salt. Where two headings read alike, the source gives them in different places.", "data": [{"compound": "CCOC(=O)/C=C\\C(=O)OCC", "note": "[DEM, Diethyl maleate]", "values": [{"measurement": "plasma glucose", "setting": "[1]; DEM 0.5 ml 20% v/v ethanolic solution i.p., then 50 IU Humulin R dermally", "value": "abrupt reduction"}]}, {"compound": "OO", "note": "[hydrogen peroxide]", "values": [{"measurement": "plasma glucose levels", "setting": "[2]; Example 6: 3 hours oxidant pretreatment (5% silver protein, 0.01% potassium permangnate, 9% hydrogen peroxide or povidone-iodine), then 50 IU Humulin R, FIG. 2", "value": "No glucose reduction"}]}, {"compound": "II", "note": "[iodine]", "values": [{"measurement": "iodine concentration at which minimum level of GSH is obtained", "setting": "[3]", "value": "about 2%"}]}, {"compound": "insulin: human insulin, applied as Humulin R solution for injection, 0.5 ml equivalent to 50 IU", "values": [{"measurement": "plasma/blood glucose levels", "setting": "[2]; dermal insulin 50 IU, control rats without oxidant pretreatment", "value": "no reduction; also recorded: not influenced; also recorded: almost the same levels with no change"}, {"measurement": "plasma glucose", "setting": "[1]; rat without DEM, 50 IU Humulin R dermally", "value": "decreased relatively slower"}, {"measurement": "applied insulin remained in the cylinder", "setting": "[4]; both control and iodine-treated groups", "value": "about 77%"}, {"measurement": "applied insulin remained in the cylinder", "setting": "[4]; control group (first value)", "value": "76.0±6.6", "unit": "%"}, {"measurement": "applied insulin remained in the cylinder", "setting": "[4]; iodine-treated group", "value": "77.3±7.8", "unit": "%"}, {"measurement": "insulin quantities in the open wells", "setting": "[4]; initial in vivo studies, insulin-containing wells on rat abdominal skin, no oxidant", "value": "significantly decreased"}, {"measurement": "insulin form found in skin extract (HPLC)", "setting": "[5]", "value": "parent insulin was accumulated quantitatively"}, {"measurement": "plasma insulin levels", "setting": "[6]", "value": "No elevation"}]}]}
